Experiment [1] concerns the target Aspergillus oryzae α-xylosidase AxyC, His6-tagged (Aspergillus oryzae). In words: SEC. On the technique in general: Size exclusion chromatography separates by hydrodynamic size, large species first.
The target in experiment [2] is T1, AxyC (Aspergillus oryzae, UniProt A0ABQ6KV83).
T1 sequence (A0ABQ6KV83 1-654): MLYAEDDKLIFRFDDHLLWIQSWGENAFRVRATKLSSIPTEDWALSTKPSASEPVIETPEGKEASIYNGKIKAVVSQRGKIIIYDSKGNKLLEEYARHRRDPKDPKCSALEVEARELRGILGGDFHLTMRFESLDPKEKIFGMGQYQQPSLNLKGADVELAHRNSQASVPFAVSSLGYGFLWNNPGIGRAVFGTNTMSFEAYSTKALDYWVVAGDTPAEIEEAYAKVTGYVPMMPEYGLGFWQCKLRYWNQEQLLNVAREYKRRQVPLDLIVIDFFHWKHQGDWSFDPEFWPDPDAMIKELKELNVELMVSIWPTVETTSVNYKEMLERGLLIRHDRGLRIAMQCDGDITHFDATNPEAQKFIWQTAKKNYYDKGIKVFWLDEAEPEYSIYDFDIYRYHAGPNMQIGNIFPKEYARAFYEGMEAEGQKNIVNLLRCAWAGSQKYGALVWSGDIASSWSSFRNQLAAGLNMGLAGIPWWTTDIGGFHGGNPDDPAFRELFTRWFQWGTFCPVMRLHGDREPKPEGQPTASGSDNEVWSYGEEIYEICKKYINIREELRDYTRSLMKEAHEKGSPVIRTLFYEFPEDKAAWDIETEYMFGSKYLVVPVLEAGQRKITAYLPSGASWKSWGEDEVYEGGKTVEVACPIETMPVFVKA
In words: absorbance of released p-nitrophenol at […] nm. Format: biochemical. As to conditions: read-out: Relative activity (%) at 40 mM.

The term stoichiometry N denotes the number of molecules, sites or subunits per partner or assembly.

In the case of “Aspergillus oryzae α-xylosidase AxyC, His6-tagged (enzyme)”, in experiment [1], the stoichiometry N came out at 4.

For `OC1OC[C@@H](O)[C@H](O)[C@H]1O` (stereo partly drawn) [D-xylose], the activity at 40000 µM in experiment [2] was 84.8 ± 4.5%.

Values taken from article PMC10792220 (Journal of Applied Glycoscience, 2023).
